Data from paper PMC5364480.
One block for each substance: values may come before it.

Legend:
FLC [1] = target: FLC (UniProt Q9S7Q7); assay: two-hybrid; pGADT7 AD and pGBKT7 BD vectors co-transformed into yeast Y187; quantitative β-galactosidase assay with ONPG (Miller units)
…3 (Arabidopsis) = …3 (Arabidopsis) (UniProt O22456); assay: as above
SOC1 [2] = target: SOC1 (UniProt O64645); assay: as above
SOC1 [3] = target: SOC1 (UniProt O64645); assay: yeast two-hybrid; conditions: p>0.05 (open symbol); parent: 1; read off a plot
FLC, SEP3 and SOC1 = assay: two-hybrid; pGADT7 AD and pGBKT7 BD vectors co-transformed into yeast Y187; quantitative β-galactosidase assay with ONPG (Miller units)
FLC [4] = target: FLC (UniProt Q9S7Q7); assay: yeast two-hybrid; conditions: p>0.05 (open symbol); parent: 1; read off a plot

Sequence of SOC1 (O64645 whole entry): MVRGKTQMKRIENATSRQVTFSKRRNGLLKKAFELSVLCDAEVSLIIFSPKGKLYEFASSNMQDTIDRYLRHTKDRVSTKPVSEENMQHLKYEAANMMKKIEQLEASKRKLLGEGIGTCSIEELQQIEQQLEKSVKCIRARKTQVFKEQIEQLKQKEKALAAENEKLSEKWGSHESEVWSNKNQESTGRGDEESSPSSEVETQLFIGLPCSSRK
Sequence of FLC (Q9S7Q7 whole entry): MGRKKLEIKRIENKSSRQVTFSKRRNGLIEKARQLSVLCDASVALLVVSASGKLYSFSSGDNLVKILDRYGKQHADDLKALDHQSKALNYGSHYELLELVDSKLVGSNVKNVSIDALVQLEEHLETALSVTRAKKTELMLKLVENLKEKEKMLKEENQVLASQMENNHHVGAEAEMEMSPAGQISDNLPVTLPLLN
Sequence of …3 (Arabidopsis) (O22456 whole entry): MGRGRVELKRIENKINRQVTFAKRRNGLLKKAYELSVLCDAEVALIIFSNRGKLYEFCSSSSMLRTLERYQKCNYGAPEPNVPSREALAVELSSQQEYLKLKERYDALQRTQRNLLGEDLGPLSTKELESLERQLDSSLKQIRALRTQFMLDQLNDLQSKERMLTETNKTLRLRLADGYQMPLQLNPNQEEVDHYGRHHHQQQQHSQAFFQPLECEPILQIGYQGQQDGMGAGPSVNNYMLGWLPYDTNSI

percent decrease of binding against wild-type SVP (FLC [1]): 64%
percent decrease of binding against wild-type SVP (…3 (Arabidopsis)): 64%
Substance: SVP ins80M (from UniProt Q9FVC1 1-240) (natural protein)

percent decrease of binding against wild-type SVP (SOC1 [2]): 28%
percent decrease of binding against wild-type SVP (…3 (Arabidopsis)): 22%
Substance: SVP C-domain insertion 220–221 YD (from UniProt Q9FVC1 1-240) (natural protein)

ratio to parent (SOC1 [3]): 0.94
Substance: SHORT … PHASE, Q9FVC1 ins80M

percent decrease of binding against wild-type SVP (FLC, SEP3 and SOC1): 84 to 95%
Substance: SVP with the unique C-domain insertion 176–196 deleted (from UniProt Q9FVC1 1-240) (natural protein)

percent increase of binding against wild-type SVP (SOC1 [2]): 40%
percent increase of binding against wild-type SVP (FLC [1]): 40%
percent decrease of binding against wild-type SVP (…3 (Arabidopsis)): 73%
Substance: SVP Q127R (from UniProt Q9FVC1 1-240) (natural protein)

percent decrease of binding against wild-type SVP (SOC1 [2]): 86%
percent decrease of binding against wild-type SVP (FLC [1]): 44%
percent increase of interaction strength against wild-type SVP (…3 (Arabidopsis)): 6%
Substance: SVP Del89V (from UniProt Q9FVC1 1-240) (natural protein)

ratio to parent (FLC [4]): 1.1
Substance: SHORT … PHASE (from UniProt Q9FVC1) ins220Y-221D
